Columns and labels:
[1] = target: T1, Human recombinant protein PRMT5 (human, UniProt O14744 1-637); experiment: co-IP; in vitro binding assay: recombinant proteins CITED2, PRMT5, NCL and P300 put together in a test tube, immunoprecipitated with the indicated antibodies, immunoblotted; conditions: both partners purified
T1 construct: PRMT5, human, recombinant protein bought from Origene; No catalogue number, host, tag or limits are printed; source: bought: Origene

[2] = target: T2, Human recombinant protein NCL (human, UniProt P19338 1-710); experiment: as above; conditions: both partners purified
T2 construct: Nucleolin, human, recombinant protein bought from Origene; No catalogue number, host, tag or limits are printed; also called nucleolin; source: bought: Origene
T2 sequence (P19338 whole entry): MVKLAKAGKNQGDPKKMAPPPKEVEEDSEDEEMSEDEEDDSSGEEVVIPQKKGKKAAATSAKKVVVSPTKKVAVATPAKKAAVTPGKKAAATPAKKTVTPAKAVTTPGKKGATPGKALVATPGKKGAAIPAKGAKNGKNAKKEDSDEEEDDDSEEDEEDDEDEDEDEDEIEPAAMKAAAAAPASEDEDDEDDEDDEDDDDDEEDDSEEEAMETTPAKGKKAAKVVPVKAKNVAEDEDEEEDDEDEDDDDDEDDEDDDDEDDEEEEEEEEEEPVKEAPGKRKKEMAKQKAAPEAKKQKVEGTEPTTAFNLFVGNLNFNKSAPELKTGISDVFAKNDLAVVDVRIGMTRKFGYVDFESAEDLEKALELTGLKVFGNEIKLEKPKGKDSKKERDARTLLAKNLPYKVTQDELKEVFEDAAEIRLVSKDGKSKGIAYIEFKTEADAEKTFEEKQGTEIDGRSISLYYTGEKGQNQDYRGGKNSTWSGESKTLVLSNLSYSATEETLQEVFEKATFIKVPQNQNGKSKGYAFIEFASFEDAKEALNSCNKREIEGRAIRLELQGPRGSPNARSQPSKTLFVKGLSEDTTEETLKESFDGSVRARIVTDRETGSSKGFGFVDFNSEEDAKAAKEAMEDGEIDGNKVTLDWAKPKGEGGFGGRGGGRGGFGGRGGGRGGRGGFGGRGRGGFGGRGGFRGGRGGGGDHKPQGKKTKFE

T1 sequence (O14744 whole entry): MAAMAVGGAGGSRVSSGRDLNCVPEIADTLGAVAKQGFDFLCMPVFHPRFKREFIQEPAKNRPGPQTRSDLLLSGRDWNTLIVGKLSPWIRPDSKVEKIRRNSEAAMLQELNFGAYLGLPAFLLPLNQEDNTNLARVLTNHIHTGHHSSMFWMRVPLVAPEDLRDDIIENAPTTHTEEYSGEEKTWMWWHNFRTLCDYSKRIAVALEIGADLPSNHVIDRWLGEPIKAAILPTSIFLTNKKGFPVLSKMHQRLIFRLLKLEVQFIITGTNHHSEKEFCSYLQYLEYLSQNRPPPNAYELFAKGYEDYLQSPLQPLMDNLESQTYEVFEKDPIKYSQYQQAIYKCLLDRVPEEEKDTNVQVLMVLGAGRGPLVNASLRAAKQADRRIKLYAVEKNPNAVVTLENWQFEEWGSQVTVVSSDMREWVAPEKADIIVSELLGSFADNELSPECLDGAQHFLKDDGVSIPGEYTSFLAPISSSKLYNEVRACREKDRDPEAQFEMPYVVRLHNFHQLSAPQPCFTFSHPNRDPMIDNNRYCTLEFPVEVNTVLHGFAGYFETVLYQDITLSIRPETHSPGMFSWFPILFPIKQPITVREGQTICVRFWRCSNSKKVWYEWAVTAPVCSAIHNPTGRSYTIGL

binding result [1]: binds
binding result [2]: binds
B1: Human recombinant protein CITED2 (natural protein, UniProt Q99967 1-270, looked up)
chain: MADHMMAMNHGRFPDGTNGLHHHPAHRMGMGQFPSPHHHQQQQPQHAFNALMGEHIHYGAGNMNATSGIRHAMGPGTVNGGHPPSALAPAARFNNSQFMGPPVASQGGSLPASMQLQKLNNQYFNHHPYPHNHYMPDLHPAAGHQMNGTNQHFRDCNPKHSGGSSTPGGSGGSSTPGGSGSSSGGGAGSSNSGGGSGSGNMPASVAHVPAAMLPPNVIDTDFIDEEVLMSLVIEMGLDRIKELPELWLGQNEFDFMTDFVCKQQPSRVSC
notes: CITED2, human, recombinant protein bought from Origene; No catalogue number, host, tag or limits are printed; source: bought: Origene
